These results are taken from patent publication US20260184815A1 (published 2026).

Sequences and labels used below:
B1: M41-A11 (Fab, V domains shown)
VH: EVQLLESGGGLVQPGGSLRLSCAASGFTFSHYRMSWVRQAPGKGLEWVSSIYPSGGRTVYADSVKGRFTISRDNSKNTLYLQMNSLRAEDTAVYYCAKDKFEWRLLFRGIGNDAFDIWGQGTMVTVSS
VL: QSVLTQPPSVSVSPGQTASITCSGDKLGDKYTSWYQQRPGQSPVLVIYQDIKRPSGIPERFSGSNSGNTATLTISGTQAMDEADYYCQAWDSPNARVFGSGTKVTVL
notes: HC as printed runs into CH1
B2: M145-D11 (Fab, V domains shown)
VH: EVQLLESGGGLVQPGGSLRLSCAASGFTFSHYRMSWVRQAPGKGLEWVSSIYPSGGRTVYADSVKGRFTISRDNSKNTLYLQMNSLRAEDTAVYYCAKDKFEWRLLFRGIGNDAFDIWGQGTMVTVSS
VL: QSVLTQPPSVSVSPGQTASITCSGDKLGDKYTSWYQQRPGQSPVLVIYQDIKRPSGIPERFSGSNSGNTATLTISGTQAMDEADYYCQAWDSPNARVFGSGTKVTVL
notes: HC as printed runs into CH1; also called 559A-M0145-D11
B3: M73-D06 (Fab, V domains shown)
VH: EVQLLESGGGLVQPGGSLRLSCAASGFTFSRYEMYWVRQAPGKGLEWVSSISSSGGPTAYADSVKGRFTISRDNSKNTLYLQMNSLRAEDTAMYYCAKGTPKWELLLRSIYIENAFDIWGQGTMVTVSS
VL: QSELTQPPSASETPGQRVTISCSGSSSNIGSNTVSWFQQLPGSAPRLLIYNDHRRPSGVPDRFSGSKSGTSASLVISGLQSQDEADYYCSAWDDSLNGVVFGGGTKLTVL
notes: HC as printed runs into CH1
B4: M160-G12 (Fab) (Fab, V domains shown)
VH: EVQLLESGGGLVQPGGSLRLSCAASGFTFSHYLMTWVRQAPGKGLEWVSYISPSGGHTIYADSVKGRFTISRDNSKNTLYLQMNSLRAEDTAVYYCARVARGIAARSRTSYFDYWGQGTLVTVSS
VL: DIQMTQSPSFLSASVGDRVTITCRASQGISSYLAWYQQKPGKAPKLLIYAASTLQSGVPSRFSGSGSGTEFTLTISSLQPEDFATYYCQQLNSYPLTFGGGTKVEIK
notes: HC as printed runs into CH1
B5: M152-A12 (Fab, V domains shown)
VH: EVQLLESGGGLVQPGGSLRLSCAASGFTFSPYFMGWVRQAPGKGLEWVSGIGPSGGSTTYADSVKGRFTISRDNSKNTLYLQMNSLRAEDTAVYYCAREGPPYSSGWYRGLRQYHFDYWGQGTLVTVSS
VL: DIQMTQSPSSLSASVGDRVTITCRASQSISSYLSWYQQRPGKAPNLLIYAASSLQSGVPSRFSGSGSGTDFTLTISSLQPEDFATYYCQQSISIPRTFGQGTKVEVK
notes: HC as printed runs into CH1
B6: M162-A04 (Fab) (Fab, V domains shown)
VH: EVQLLESGGGLVQPGGSLRLSCAASGFTFSHYIMMWVRQAPGKGLEWVSGIYSSGGITVYADSVKGRFTISRDNSKNTLYLQMNSLRAEDTAVYYCAYRRTGIPRRDAFDIWGQGTMVTVSS
VL: DIQMTQSPSTLSASVGDRVTITCRASQSISSWLAWYQQKPGKAPNLLIYKASTLESGVPSRFSGSGSGTEFTLTISSLQPDDFATYYCQQYNTYWTFGQGTKVEIK
notes: Non-germlined Fab discovered using phage display; HC as printed runs into CH1
B7: M142-H08 (Fab) (Fab, V domains shown)
VH: EVQLLESGGGLVQPGGSLRLSCAASGFTFSAYSMIWVRQAPGKGLEWVSYIRPSGGRTTYADSVKGRFTISRDNSKNTLYLQMNSLRAEDTAVYYCARGGLLLWFRELKSNYFDYWGQGTLVTVSS
VL: DIQMTQSPSSLSAFVGDRVTITCRASQPIDNYLNWYHQKPGKAPKLLIYAASRLQSGVPSRLSGSGFGTDFTLTISSLQPEDFGNYYCQQSYTVPYTFGGGTKVEIR
notes: HC as printed runs into CH1
B8: M29-D09 (Fab, V domains shown)
VH: EVQLLESGGGLVQPGGSLRLSCAASGFTFSWYTMVWVRQAPGKGLEWVSYIYPSGGATFYADSVKGRFTISRDNSKNTLYLQMNSLRAEDTAVYYCAMGSYDYIWGFYSDHWGQGTLVTVSS
VL: QSALTQPPTVSVSPGQTARITCSGNKLGDKYVAWYQQKPGQSPMLVIYQDTKRPSRVSERFSGSNSANTATLSISGTQALDEADYYCQAWDSSIVIFGGGTRLTVL
notes: HC as printed runs into CH1; also called 559A-M0029-D09
B9: M35-G04 (Fab, V domains shown)
VH: EVQLLESGGGLVQPGGSLRLSCAASGFTFSYYHMSWVRQAPGKGLEWVSVISPSGGSTKYADSVKGRFTISRDNSKNTLYLQMNSLRAEDTAVYYCARGGSSDYAWGSYRRPYYFDYWGQGTLVTVSS
VL: DIQMTQSPATLSLSPGERATLSCRASQSVSSYLAWYQQKPGQAPRLLIYDASNRATGIPARFSGSGSGTDFTLTISSLEPEDFAVYYCQQRSNWPRGFTFGPGTKVDIK
notes: HC as printed runs into CH1; also called 559A-M0035-G04
B10: M145-D01 (Fab, V domains shown)
VH: EVQLLESGGGLVQPGGSLRLSCAASGFTFSYYHMSWVRQAPGKGLEWVSVISPSGGSTKYADSVKGRFTISRDNSKNTLYLQMNSLRAEDTAVYYCARGGSSDYAWGSYRRPYYFDYWGQGTLVTVSS
VL: DIQMTQSPATLSLSPGERATLSCRASQSVSSYLAWYQQKPGQAPRLLIYDASNRATGIPARFSGSGSGTDFTLTISSLEPEDFAVYYCQQRSNWPRGFTFGPGTKVDIK
notes: HC as printed runs into CH1
B11: M38-F02 (Fab, V domains shown)
VH: EVQLLESGGGLVQPGGSLRLSCAASGFTFSYYMMVWVRQAPGKGLEWVSYIYSSGGHTVYADSVKGRFTISRDNSKNTLYLQMNSLRAEDTAVYYCARDLFLYDFWSKGAFDIWGQGTMVTVSS
VL: QSVLTQPPSVSVSPGQTASITCSGEKLGDKYVSWYQQKPGQSPSLVICEDSRRPSGIPERFSGSNSGNTATLTISGAQPMDEADYYCQAWDSSTAIFGPGTKVTVL
notes: HC as printed runs into CH1
B12: M76-D01 (Fab, V domains shown)
VH: EVQLLESGGGLVQPGGSLRLSCAASGFTFSFYAMHWVRQAPGKGLEWVSGIVPSGGRTHYADSVKGRFTISRDNSKNTLYLQMNSLRAEDTAVYYCATDSSGSPNPLFDYWGQGTLVTVSS
VL: DIVMTQTPPSLPVNPGEPASISCRSSQSLSDDGNTYLDWYLQRPGQSPQLLIHTLSYRASGVPDRFSGSGSGTDFTLKISRVEAEDVGVYYCMQGTHWPPTFGQGTKVEIK
notes: HC as printed runs into CH1 (ends APSPKS as printed)
B13: M10-F10 (Fab, V domains shown)
VH: EVQLLESGGGLVQPGGSLRLSCAASGFTFSFYNMNWVRQAPGKGLEWVSSISPSGGETNYADSVKGRFTISRDNSKNTLYLQMNSLRAEDTAVYYCARGGGAYRNNWWGGFDIWGLGTMVTVSS
VL: DIQMTQSPSSLSASVGDRVTITCRASQSISVYLNWYQHKPGKAPKLLIYGASNLQFGVPSRFSGSGYGTDFTLTISSLQPEDFATYHCQQTFSLFTFGGGTKVEIK
notes: HC as printed runs into CH1
B14: M110-C12 (Fab, V domains shown)
VH: EVQLLESGGGLVQPGGSLRLSCAASGFTFSYYEMDWVRQAPGKGLEWVSGISSSGGHTAYADSVKGRFTISRDNSKNTLYLQMNSLRAEDTATYYCARERRSSSRARYYYGMDVWGQGTTVTVSS
VL: DIQMTQSPLSLSVTPGEPASISCRSSLSLLHSNGYNYLDWYVQRPGQSPQLLMYLSSTRASGVPDRFSGSGSGTDFTLEISRVEAEDVGVYYCMQPLETPPTFGGGTKVEIK
notes: HC as printed runs into CH1
B15: M7-E07 (Fab, V domains shown)
VH: EVQLLESGGGLVQPGGSLRLSCAASGFTFSWYLMIWVRQAPGKGLEWVSYIYPSGGFTYYADSVKGRFTISRDNSKNTLYLQMNSLRAEDMAVYYCARTEGPLSWGYGMDVWGQGTTVTVSS
VL: not shown
notes: HC as printed runs into CH1
B16: M27-E05 (Fab, V domains shown)
VH: EVQLLESGGGLVQPGGSLRLSCAASGFTFSWYLMIWVRQAPGKGLEWVSYIYPSGGFTYYADSVKGRFTISRDNSKNTLYLQMNSLRAEDMAVYYCARTEGPLSWGYGMDVWGQGTTVTVSS
VL: not shown
notes: HC as printed runs into CH1
B17: M8-A09 (Fab, V domains shown)
VH: EVQLLESGGGLVQPGGSLRLSCAASGFTFSTYFMLWVRQAPGKGLEWVSSIYPSGGNTVYADSVKGRFTISRDNSKNTLYLQMNSLRAEDTAVYYCARAASPVRNYYYYGMDVWGQGTTVTVSS
VL: QCELTQPPSESVSPGQTANITCSGDKLGNKYAYWYQQKPGQSPVLVIYQDNNRPSGIPERFSGSNSGNTATLTISGTQAIDEANYYCQAWDSRTVVFGGGTKLTVL
notes: HC as printed runs into CH1
B18: M137-E12 (Fab, V domains shown)
VH: EVQLLESGGGLVQPGGSLRLSCAASGFTFSDYRMQWVRQAPGKGLEWVSVIVPSGGNTMYADSVKGRFTISRDNSKNTLYLQMNSLRAEDTAVYYCARGGPGSSIAARRAPTGYYGMDVWGQGTTVTVSS
VL: QSVLIQPPSVSGIPGQRVTISCSGNNSNFGSNTVTWYQQLPGTAPKLLIYSDSRRPSGVPDRFSGSRSDTSASLAISGLQSEDEAEYHCAAWDDSLNGVFGGGTKLTVL
notes: HC as printed runs into CH1
B19: M29-E09 (Fab, V domains shown)
VH: EVQLLESGGGLVQPGGSLRLSCAASGFTFSWYEMGWVRQAPGKGLEWVSSIYSSGGGTMYADSVKGRFTISRDNSKNTLYLQMNSLRAEDTAVYYCARNPQYSGYDRSLSDGAFDIWGQGTMVTVSS
VL: QYELTQPPSVSVSPGQTATITCSGDNLGNKYNSWYQQKPGQSPLLVIYQDTKRPSAIPERFSGSNSGNTATLTISGTQAMDEADYYCQAWDGNVVFGGGTKLTVL
notes: HC as printed runs into CH1
B20: M161-C11 (Fab, V domains shown)
VH: EVQLLESGGGLVQPGGSLRLSCAASGFTFSDYAMKWVRQAPGKGLEWVSSISSSGGVTQYADSVKGRFTISRDNSKNTLYLQMNSLRAEDTAVYYCAREEDYSSSWYSRRFDYYYGMDVWGQGTTVTVSS
VL: QSALTQPPSVSVSPGQTASITCSGDKLGDKYVSWYQQRPGQSPVLVIYQDTKRPSGIPERFSGSNSGNTATLTISGTQAVDEADYYCQAWDSSTYVFGGGTKVTVL
notes: HC as printed runs into CH1
B21: M146-E12 (Fab, V domains shown)
VH: EVQLLESGGGLVQPGGSLRLSCAASGFTFSRYIMHWVRQAPGKGLEWVSSISPSGGLTSYADSVKGRFTISRDNSKNTLYLQMNSLRAEDTAVYYCAREFENAYHYYYYGMDVWGQGTTVTVSS
VL: DIQMTQSPSSLSASVGDRVTITCRASGDIGNALGWYQQKPGKAPRLLISDASTLQSGVPLRFSGSGSGTEFTLTISSLQPEDFATYYCLQGYNYPRTFGQGTKLEIR
notes: HC as printed runs into CH1

For the experiment, the target named is T1, human plasma kallikrein (human, UniProt P03952 20-390; P03952 391-638).
T1 construct: also called pKal; Human pKal
T1 sequence (P03952 20-390, chain 1 of 2): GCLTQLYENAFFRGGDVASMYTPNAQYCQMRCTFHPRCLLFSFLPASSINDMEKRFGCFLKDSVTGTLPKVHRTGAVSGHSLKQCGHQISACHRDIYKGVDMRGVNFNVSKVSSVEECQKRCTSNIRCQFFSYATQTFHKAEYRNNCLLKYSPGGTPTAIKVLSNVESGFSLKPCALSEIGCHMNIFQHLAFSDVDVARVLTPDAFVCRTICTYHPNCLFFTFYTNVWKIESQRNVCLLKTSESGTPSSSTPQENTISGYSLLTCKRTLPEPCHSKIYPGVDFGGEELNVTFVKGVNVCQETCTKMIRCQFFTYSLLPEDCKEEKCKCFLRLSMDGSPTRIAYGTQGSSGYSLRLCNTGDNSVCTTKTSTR
T1 sequence (P03952 391-638, chain 2 of 2): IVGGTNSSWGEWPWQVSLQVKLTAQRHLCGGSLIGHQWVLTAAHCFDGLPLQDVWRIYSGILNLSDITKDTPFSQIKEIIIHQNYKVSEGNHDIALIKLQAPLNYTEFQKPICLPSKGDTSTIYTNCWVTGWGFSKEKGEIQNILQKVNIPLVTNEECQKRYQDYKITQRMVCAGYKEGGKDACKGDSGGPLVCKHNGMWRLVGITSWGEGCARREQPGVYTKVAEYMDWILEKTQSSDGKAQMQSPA
In words: ELISA, biotinylated pKal signal over streptavidin background. From the text:
Abbreviations used: “T/B” is the ELISA signal obtained using of the “target” (biotinylated plasma kallikrein) divided by the ELISA signal of the “background” (streptavidin); both of which were coated on microtiter plates, “nd” is not determined. The symbol “q” refers to the amber suppressible stop codon (TAG), which is translated as glutamine (Q) in strains of E. coli such as the TG1 cells that were used to express the Fab fragments.
In general terms: ELISA stands for enzyme-linked immunosorbent assay.
B1: the “ELISA (T/B)” value was determined as 28 T/B.
With B2, the “ELISA (T/B)” value was 40 T/B.
In the case of B3, the “ELISA (T/B)” value amounted to 4 T/B.
The value for B4 was 38.3 T/B.
Take B5: the “ELISA (T/B)” value was 19 T/B.
For B6 the value was 11.4 T/B; for B7, 29.9 T/B.
For B8 the value was 47.5 T/B.
Consider B9, for which the “ELISA (T/B)” value was 11.1 T/B.
Turning to B10, the “ELISA (T/B)” value amounted to 6.2 T/B.
Turning to B11, the “ELISA (T/B)” value stood at 33.5 T/B.
Take B12: the “ELISA (T/B)” value was determined as 11.2 T/B.
As for B13, the “ELISA (T/B)” value was found to be 39.2 T/B.
The value for B14 was 2.4 T/B; that for B15 was 45.7 T/B.
For B16, the “ELISA (T/B)” value was found to be 41.3 T/B.
For B17, the “ELISA (T/B)” value stood at 5.4 T/B.
For B18, the “ELISA (T/B)” value was 4.5 T/B.
On to B19, for which the “ELISA (T/B)” value is 28.8 T/B.
B20: the “ELISA (T/B)” value came out at 41.8 T/B.
In the case of B21, the “ELISA (T/B)” value stood at 49.6 T/B.
